Measured values reported in US20030203373A1 (priority 2002, published 2003).

Target: T1, angiotensin-converting enzyme (ACE) from pig kidney (EC 3.4.15.1 (Sigma)) (pig) (UniProt F1RRW5)
T1 sequence (looked up): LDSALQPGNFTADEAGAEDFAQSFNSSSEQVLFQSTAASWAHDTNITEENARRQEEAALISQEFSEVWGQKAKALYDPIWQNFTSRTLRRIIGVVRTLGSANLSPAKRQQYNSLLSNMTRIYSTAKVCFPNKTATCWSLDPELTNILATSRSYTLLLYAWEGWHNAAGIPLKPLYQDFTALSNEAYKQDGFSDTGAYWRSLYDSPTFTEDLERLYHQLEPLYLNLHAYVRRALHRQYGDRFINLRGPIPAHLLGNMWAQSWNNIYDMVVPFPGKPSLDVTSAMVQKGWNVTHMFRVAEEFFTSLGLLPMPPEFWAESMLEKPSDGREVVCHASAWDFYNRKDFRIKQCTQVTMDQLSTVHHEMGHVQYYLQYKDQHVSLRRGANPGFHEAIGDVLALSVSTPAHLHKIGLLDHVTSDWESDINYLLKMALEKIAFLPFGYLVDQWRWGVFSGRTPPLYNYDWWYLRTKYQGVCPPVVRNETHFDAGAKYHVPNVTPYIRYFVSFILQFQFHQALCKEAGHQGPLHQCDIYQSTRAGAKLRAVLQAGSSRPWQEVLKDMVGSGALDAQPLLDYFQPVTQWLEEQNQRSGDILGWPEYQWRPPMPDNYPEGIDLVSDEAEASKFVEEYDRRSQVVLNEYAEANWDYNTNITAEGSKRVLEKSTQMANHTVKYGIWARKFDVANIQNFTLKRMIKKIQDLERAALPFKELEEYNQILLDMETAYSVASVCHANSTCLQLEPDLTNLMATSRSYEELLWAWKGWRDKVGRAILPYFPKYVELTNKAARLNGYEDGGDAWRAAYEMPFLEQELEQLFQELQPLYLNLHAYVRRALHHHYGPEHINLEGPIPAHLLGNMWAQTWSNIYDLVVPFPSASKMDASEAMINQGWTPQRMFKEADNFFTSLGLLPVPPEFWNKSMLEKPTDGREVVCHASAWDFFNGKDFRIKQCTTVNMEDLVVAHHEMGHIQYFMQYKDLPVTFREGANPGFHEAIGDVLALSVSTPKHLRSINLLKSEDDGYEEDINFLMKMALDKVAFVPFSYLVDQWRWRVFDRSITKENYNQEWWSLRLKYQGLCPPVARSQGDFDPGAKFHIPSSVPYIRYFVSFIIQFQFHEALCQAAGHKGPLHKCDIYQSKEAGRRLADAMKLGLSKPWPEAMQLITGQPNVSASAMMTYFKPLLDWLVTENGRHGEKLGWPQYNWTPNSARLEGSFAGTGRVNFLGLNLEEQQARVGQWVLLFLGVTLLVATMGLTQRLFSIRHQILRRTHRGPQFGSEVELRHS
Test: cell-based or functional assay

Binder: PLPEVPP [Peptid S548 (PLPEVPP)]
- % inhibition of ACE, 0.39 µM inhibitor, row A: 9.98%
- % inhibition of ACE, 0.39 µM inhibitor, row B: 5.85%
- % inhibition of ACE, 0.39 µM inhibitor, row C: 4.63%
- % inhibition of ACE, 0.39 µM inhibitor, row D: -9.77%
- % inhibition of ACE, 0.78125 µM inhibitor, row A: 12.8%
- % inhibition of ACE, 0.78125 µM inhibitor, row B: 18.5%
- % inhibition of ACE, 0.78125 µM inhibitor, row C: 6.03%
- % inhibition of ACE, 0.78125 µM inhibitor, row D: 2.73%
- % inhibition of ACE, 1.5625 µM inhibitor, row A: 14.3%
- % inhibition of ACE, 1.5625 µM inhibitor, row B: 25.6%
- % inhibition of ACE, 1.5625 µM inhibitor, row C: 11.2%
- % inhibition of ACE, 1.5625 µM inhibitor, row D: 4.98%
- % inhibition of ACE, 3.125 µM inhibitor, row A: 20.4%
- % inhibition of ACE, 3.125 µM inhibitor, row B: 18.6%
- % inhibition of ACE, 3.125 µM inhibitor, row C: 16.3%
- % inhibition of ACE, 3.125 µM inhibitor, row D: 12.7%
- % inhibition of ACE, 6.25 µM inhibitor, row A: 30.6%
- % inhibition of ACE, 6.25 µM inhibitor, row B: 28.8%
- % inhibition of ACE, 6.25 µM inhibitor, row C: 25.2%
- % inhibition of ACE, 6.25 µM inhibitor, row D: 22.6%
- % inhibition of ACE, 12.5 µM inhibitor, row A: 36.8%
- % inhibition of ACE, 12.5 µM inhibitor, row B: 37.2%
- % inhibition of ACE, 12.5 µM inhibitor, row C: 35.7%
- % inhibition of ACE, 12.5 µM inhibitor, row D: 31.6%
- % inhibition of ACE, 25 µM inhibitor, row A: 55.7%
- % inhibition of ACE, 25 µM inhibitor, row B: 54.8%
- % inhibition of ACE, 25 µM inhibitor, row C: 56.7%
- % inhibition of ACE, 25 µM inhibitor, row D: 54.5%
- % inhibition of ACE, 50 µM inhibitor, row A: 69.5%
- % inhibition of ACE, 50 µM inhibitor, row B: 68.1%
- % inhibition of ACE, 50 µM inhibitor, row C: 64.2%
- % inhibition of ACE, 50 µM inhibitor, row D: 62.3%
- % inhibition of ACE, 100 µM inhibitor, row A: 81.8%
- % inhibition of ACE, 100 µM inhibitor, row B: 80.4%
- % inhibition of ACE, 100 µM inhibitor, row C: 78.9%
- % inhibition of ACE, 100 µM inhibitor, row D: 77.8%
- % inhibition of ACE, 200 µM inhibitor, row A: 89.3%
- % inhibition of ACE, 200 µM inhibitor, row B: 88.5%
- % inhibition of ACE, 200 µM inhibitor, row C: 88.4%
- % inhibition of ACE, 200 µM inhibitor, row D: 87.9%
- fluorescence (ACE activity), 0.39 µM inhibitor, row A: 813000
- fluorescence (ACE activity), 0.39 µM inhibitor, row B: 850000
- fluorescence (ACE activity), 0.39 µM inhibitor, row C: 861000
- fluorescence (ACE activity), 0.39 µM inhibitor, row D: 990000
- fluorescence (ACE activity), 0.78125 µM inhibitor, row A: 788000
- fluorescence (ACE activity), 0.78125 µM inhibitor, row B: 737000
- fluorescence (ACE activity), 0.78125 µM inhibitor, row C: 848000
- fluorescence (ACE activity), 0.78125 µM inhibitor, row D: 878000
- fluorescence (ACE activity), 1.5625 µM inhibitor, row A: 774000
- fluorescence (ACE activity), 1.5625 µM inhibitor, row B: 673000
- fluorescence (ACE activity), 1.5625 µM inhibitor, row C: 803000
- fluorescence (ACE activity), 1.5625 µM inhibitor, row D: 858000
- fluorescence (ACE activity), 3.125 µM inhibitor, row A: 720000
- fluorescence (ACE activity), 3.125 µM inhibitor, row B: 736000
- fluorescence (ACE activity), 3.125 µM inhibitor, row C: 756000
- fluorescence (ACE activity), 3.125 µM inhibitor, row D: 789000
- fluorescence (ACE activity), 6.25 µM inhibitor, row A: 628000
- fluorescence (ACE activity), 6.25 µM inhibitor, row B: 644000
- fluorescence (ACE activity), 6.25 µM inhibitor, row C: 676000
- fluorescence (ACE activity), 6.25 µM inhibitor, row D: 699000
- fluorescence (ACE activity), 12.5 µM inhibitor, row A: 573000
- fluorescence (ACE activity), 12.5 µM inhibitor, row B: 668000
- fluorescence (ACE activity), 12.5 µM inhibitor, row C: 583000
- fluorescence (ACE activity), 12.5 µM inhibitor, row D: 619000
- fluorescence (ACE activity), 25 µM inhibitor, row A: 402000
- fluorescence (ACE activity), 25 µM inhibitor, row B: 411000
- fluorescence (ACE activity), 25 µM inhibitor, row C: 394000
- fluorescence (ACE activity), 25 µM inhibitor, row D: 413000
- fluorescence (ACE activity), 50 µM inhibitor, row A: 278000
- fluorescence (ACE activity), 50 µM inhibitor, row B: 292000
- fluorescence (ACE activity), 50 µM inhibitor, row C: 326000
- fluorescence (ACE activity), 50 µM inhibitor, row D: 343000
- fluorescence (ACE activity), 100 µM inhibitor, row A: 168000
- fluorescence (ACE activity), 100 µM inhibitor, row B: 181000
- fluorescence (ACE activity), 100 µM inhibitor, row C: 194000
- fluorescence (ACE activity), 100 µM inhibitor, row D: 204000
- fluorescence (ACE activity), 200 µM inhibitor, row A: 101000
- fluorescence (ACE activity), 200 µM inhibitor, row B: 108000
- fluorescence (ACE activity), 200 µM inhibitor, row C: 109000
- fluorescence (ACE activity), 200 µM inhibitor, row D: 114000
